From article PMC6284025

Columns and labels:
[1] = target: FcγRII (CD32) on human CD4+ T cells (human (endogenous in CD4+ T cells of blood donors)) (UniProt P12318); test: flow cytometry on cells; activated purified CD4+ T cells incubated with aIgG (100 μg/ml) for 2 h at 37°C, washed three times, stained with biotinylated anti-human IgG Fc and streptavidin PerCP; percent of aIgG+CD4+ T cells
[2] = target: FcγRII (CD32) on human CD4+ T cells (human (endogenous in CD4+ T cells of blood donors)) (UniProt P12318)

Chain of UniProt P12318 (P12318 34-317): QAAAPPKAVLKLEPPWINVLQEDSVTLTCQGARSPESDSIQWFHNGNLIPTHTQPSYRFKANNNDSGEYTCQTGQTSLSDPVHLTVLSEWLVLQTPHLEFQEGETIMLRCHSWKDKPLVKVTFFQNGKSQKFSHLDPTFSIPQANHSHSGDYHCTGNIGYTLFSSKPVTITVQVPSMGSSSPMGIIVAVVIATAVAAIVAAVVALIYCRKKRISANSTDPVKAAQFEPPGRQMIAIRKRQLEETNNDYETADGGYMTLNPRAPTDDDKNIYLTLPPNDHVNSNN

percent of aIgG+CD4+ T cells [1]: 14.1%
IFN-γ in the supernatant (ELISA) after cIgG, then suboptimal PHA for 5 d [2]: 4950 pg/mL
IL-5 in the supernatant (ELISA) after cIgG, then suboptimal PHA for 5 d [2]: 77.9 pg/mL
IL-10 in the supernatant (ELISA) after cIgG, then suboptimal PHA for 5 d [2]: 143 pg/mL
TNF-α in the supernatant (ELISA) after cIgG, then suboptimal PHA for 5 d [2]: 59.1 pg/mL
Substance: Human IgG (heat-aggregated IgG, used as a model of immune complexes; or immobilised on plastic) (ligand)
